Laboratory results from paper PMC2989882.
Like-named read-outs stand apart in the source and are kept apart here.

Legend:
[1] = molecular target: T1, 3Dpol WT (RNA-dependent RNA polymerase) (poliovirus, UniProt P03300 1749-2209); test: NMR
[2] = molecular target: T1, 3Dpol WT (RNA-dependent RNA polymerase); test: NMR; remark: listed apart in the source

T1 sequence (P03300 1749-2209): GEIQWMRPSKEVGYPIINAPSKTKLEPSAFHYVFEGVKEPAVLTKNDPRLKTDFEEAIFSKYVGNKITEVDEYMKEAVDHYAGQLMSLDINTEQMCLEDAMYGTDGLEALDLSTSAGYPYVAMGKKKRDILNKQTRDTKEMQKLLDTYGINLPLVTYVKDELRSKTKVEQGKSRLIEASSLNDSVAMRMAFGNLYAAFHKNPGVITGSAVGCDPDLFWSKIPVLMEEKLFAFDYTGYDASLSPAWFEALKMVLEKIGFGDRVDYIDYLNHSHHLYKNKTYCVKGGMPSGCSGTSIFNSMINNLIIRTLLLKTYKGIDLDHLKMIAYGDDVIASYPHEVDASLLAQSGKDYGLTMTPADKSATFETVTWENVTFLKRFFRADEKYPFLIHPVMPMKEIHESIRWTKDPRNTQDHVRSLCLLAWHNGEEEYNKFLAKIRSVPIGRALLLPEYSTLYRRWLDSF

B1: sym/sub RNA (dsRNA)
RNA 1: GCAUGGGCCC
RNA 2: GCAUGGGCCC
[1]
  binding result: binds

B2: 3'-blocked sym/sub RNA (after 3'-dAMP incorporation) (dsRNA)
RNA 1: GCAUGGGCCCA
RNA 2: GCAUGGGCCCA
modifications: 3'-terminal 3'-deoxyadenosine (A11)
[2]
  binding result: binds
